Assay results published in paper PMC10805701, “Structure of mycobacterial ergothioneine-biosynthesis C-S lyase EgtE” (The Journal of Biological Chemistry, 2023).
Substitutions are numbered along the chain they refer to. Names and notes keep the numbering of the source.

B1: MsEgtE (Mycolicibacterium smegmatis MC2 155) (protein)
chain: MMLAQQWRDARPKVAGLHLDSGACSRQSFAVIDATTAHARHEAEVGGYVAAEAATPALDAGRAAVASLIGFAASDVVYTSGSNHAIDLLLSSWPGKRTLACLPGEYGPNLSAMAANGFQVRALPVDDDGRVLVDEASHELSAHPVALVHLTALASHRGIAQPAAELVEACHNAGIPVVIDAAQALGHLDCNVGADAVYSSSRKWLAGPRGVGVLAVRPELAERLQPRIPPSDWPIPMSVLEKLELGEHNAAARVGFSVAVGEHLAAGPTAVRERLAEVGRLSRQVLAEVDGWRVVEPVDQPTAITTLESTDGADPASVRSWLIAERGIVTTACELARAPFEMRTPVLRISPHVDVTVDELEQFAAALREAP
notes: full-length ORF, pET28a N-terminal hexa-histidine tag, E. coli BL21 (DE3); homodimer (~76 kDa by SEC, predicted 78 kDa)
B2: MsEgtE (Mycolicibacterium smegmatis MC2 155; Q183A) (protein)
chain: B1 chain with Q183A
notes: as for B1
B3: MsEgtE (Mycolicibacterium smegmatis MC2 155; Y106F) (protein)
chain: B1 chain with Y106F
notes: as for B1
B4: ergothioneine-biosynthesis C-S lyase EgtE from Mycobacterium smegmatis (enzyme, M. smegmatis strain mc2155, UniProt A0R5M7 1-371, looked up)
chain: B1 chain
modifications: PLP covalently linked to Lys203 via a Schiff base linkage (monomer 1; bond broken in monomer 2 of the MsEgtE-PLP crystal)
notes: EgtE (PLP-dependent C-S lyase), Mycobacterium smegmatis strain mc2155, full-length ORF of msmeg_6246 in pET28a; residues 1-371 described in the structure; Homodimer by crystal structure and size exclusion chromatography; also called MsEgtE; MsEgtE-PLP
B5: MsEgtE (Mycolicibacterium smegmatis MC2 155; R202K) (protein)
chain: B1 chain with R202K
notes: as for B1

Tests used:
MsEgtE [1] = target: T1, MsEgtE (Mycolicibacterium smegmatis, UniProt A0R5M7, Y48A); experiment: isothermal titration calorimetry, single injection; type: binding; conditions: 25 °C; 1 mM sulfoxide 4 injected into 20 μM enzyme
T1 construct: gene egtE; full-length ORF, pET28a N-terminal hexa-histidine tag, E. coli BL21 (DE3); homodimer (~76 kDa by SEC, predicted 78 kDa)
T1 sequence (A0R5M7 whole entry Y48A): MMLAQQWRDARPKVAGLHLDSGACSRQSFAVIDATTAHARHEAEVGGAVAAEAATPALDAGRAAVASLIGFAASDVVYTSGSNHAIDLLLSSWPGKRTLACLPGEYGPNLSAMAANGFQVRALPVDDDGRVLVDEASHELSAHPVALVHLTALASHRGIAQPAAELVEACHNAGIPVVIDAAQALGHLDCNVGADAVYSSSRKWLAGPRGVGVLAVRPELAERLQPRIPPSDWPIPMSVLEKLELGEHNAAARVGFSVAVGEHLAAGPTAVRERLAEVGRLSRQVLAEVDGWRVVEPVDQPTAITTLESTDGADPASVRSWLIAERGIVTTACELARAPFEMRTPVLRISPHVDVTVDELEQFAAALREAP

MsEgtE [2] = target: T2, MsEgtE (Mycolicibacterium smegmatis, UniProt A0R5M7); experiment: X-ray crystal structure, […] Å; type: binding; conditions: active site of MsEgtE-PLP; from soaked sulfoxide 4 (10 mM)
T2 construct: gene egtE; full-length ORF, pET28a N-terminal hexa-histidine tag, E. coli BL21 (DE3); homodimer (~76 kDa by SEC, predicted 78 kDa)
T2 sequence (A0R5M7 1-371): B1 chain

purified protein = substrate: C[N+](C)(C)[C@@H](Cc1cnc([S+]([O-])C[C@H](N)C(=O)O)[nH]1)C(=O)[O-]; experiment: purified protein; type: biochemical, Mycolicibacterium smegmatis; conditions: 50 mM KPi pH 8.0, 25 °C, PLP-loaded enzyme, 1 mM DTT, 0.13 mM NADH
[3] = target: the molecule itself; experiment: crystal structure; MsEgtE-PLP binding pyruvate crystal, 2.35 Å, short soak in sulfoxide 4; 0.1 M citric acid pH 6.5, 15% PEG8000, 15% glycol
[4] = target: the molecule itself; experiment: crystal structure; MsEgtE-PLP crystal, 2.8 Å, two molecules per asymmetric unit; sitting drop at 16 °C, 0.1 M HEPES-Na pH 7.5, 1 M NaCl, 0.1 M LiSO4, 10% PEG1000

Molecule | Km (purified protein) | kcat (purified protein) | also measured
C[N+](C)(C)[C@@H](Cc1cnc([S+]([O-])C[C@H](N)C(=O)O)[nH]1)C(=O)[O-] (stereo partly drawn) [compound 4, sulfoxide 4] | – | – | isothermal titration calorimetry, single injection (MsEgtE [1]): Y48A mutant still retains a certain level of substrate binding capability
CC(=O)C(=O)O [pyruvate] | – | – | X-ray crystal structure, 2.35 Å (MsEgtE [2]): pyruvate binds in the deep crevice of the active center
B1 | 516.0 ± 122.1 µM | 2.08 ± 0.25 s⁻¹ | –
B2 | 679.7 ± 235.0 µM | 0.23 ± 0.04 s⁻¹ | –
B3 | 52.1 ± 13.1 µM | 0.32 ± 0.02 s⁻¹ | –
B4 | – | – | stoichiometry N [3]: 4; stoichiometry N [4]: 2
B5 | 58.5 ± 8.7 µM | 0.03 ± 0.01 s⁻¹ | –
